Source: patent US20060257938A1, “Method of screening for drugs that block ligand binding to a lipid binding protein” (priority 2005, published 2006)
Where “and” joins values, the source holds several entries; their conditions need not be identical. Equal entries are not always repeated.

Assays:
Assay type in all cases: binding
Details in all cases: response relative to ADIFAB2
[1] = Probe fluorescence ratio response to arachidonic acid relative to ADIFAB2
Procedure, shortened: (§1)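 Fluorescently labeled rat intestinal FABP variants were read at two emission wavelengths, near the unbound maximum (about 420 to 480 nm) and the FFA-bound maximum (about 495 to 580 nm). R = Fλ1/Fλ2 after subtracting probe-free intensity; ΔR = R+agent − R0, normalized to ADIFAB2 (rI-FABP-L72A).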

[2] = Probe fluorescence ratio response to linolenic acid relative to ADIFAB2
Procedure, shortened: as §1

[3] = Probe fluorescence ratio response to linoleic acid relative to ADIFAB2
Procedure, shortened: as §1

[4] = Probe fluorescence ratio response to oleic acid relative to ADIFAB2
Procedure, shortened: as §1

[5] = Probe fluorescence ratio response to palmitic acid relative to ADIFAB2
Procedure, shortened: as §1

B1: 82V1, 72A (protein, listed as Rattus norvegicus)
chain: AFDGTWKVDRNENYEKFMEKMGINVVKRKLGAHDNLKLTITQEGNKFTVKESSNFRNIDVVFELGVDFAYSAADGTELTGTVTMEGNKLVGKFKRVDNGKELIAVREISGNELIQTYTYEGVEAKRIFKKE
modifications: PEPTIDE (1)...(131) wild-type rat intestinal fatty acid binding protein
- DR/DR AA ([1]; Arachidonic acid): 0.86
- DR/DR LNA [2]: 0.76
- DR/DR LA [3]: 0.74
- DR/DR OA [4]: 0.65
- DR/DR PA [5]: 0.48

B2: 104N1, 72A (protein, listed as Rattus norvegicus)
chain: AFDGTWKVDRNENYEKFMEKMGINVVKRKLGAHDNLKLTITQEGNKFTVKESSNFRNIDVVFELGVDFAYSAADGTELTGTWTMEGNKLVGKFKRVDNGKELINVREISGNELIQTYTYEGVEAKRIFKKE
modifications: PEPTIDE (1)...(131) wild-type rat intestinal fatty acid binding protein
- DR/DR AA ([1]; arachidonic acid): 1.14
- DR/DR LNA [2]: 1.06
- DR/DR LA [3]: 0.67
- DR/DR OA [4]: 0.71
- DR/DR PA [5]: 0.52

B3: 104V1, 72A (protein, listed as Rattus norvegicus)
chain: AFDGTWKVDRNENYEKFMEKMGINVVKRKLGAHDNLKLTITQEGNKFTVKESSNFRNIDVVFELGVDFAYSAADGTELTGTWTMEGNKLVGKFKRVDNGKELIVVREISGNELIQTYTYEGVEAKRIFKKE
modifications: PEPTIDE (1)...(131) wild-type rat intestinal fatty acid binding protein
- DR/DR AA ([1]; arachidonic acid): 0.63
- DR/DR LNA [2]: 0.73
- DR/DR LA [3]: 0.73
- DR/DR OA [4]: 0.76
- DR/DR PA [5]: 0.63

B4: 104L1, 72A (protein, listed as Rattus norvegicus)
chain: AFDGTWKVDRNENYEKFMEKMGINVVKRKLGAHDNLKLTITQEGNKFTVKESSNFRNIDVVFELGVDFAYSAADGTELTGTWTMEGNKLVGKFKRVDNGKELILVREISGNELIQTYTYEGVEAKRIFKKE
modifications: PEPTIDE (1)...(131) wild-type rat intestinal fatty acid binding protein
- DR/DR AA ([1]; arachidonic acid): 0.38
- DR/DR LNA [2]: 0.42
- DR/DR LA [3]: 0.39
- DR/DR OA [4]: 0.48
- DR/DR PA [5]: 0.31

B5: 104Y1, 72A (protein, listed as Rattus norvegicus)
chain: AFDGTWKVDRNENYEKFMEKMGINVVKRKLGAHDNLKLTITQEGNKFTVKESSNFRNIDVVFELGVDFAYSAADGTELTGTWTMEGNKLVGKFKRVDNGKELIYVREISGNELIQTYTYEGVEAKRIFKKE
modifications: PEPTIDE (1)...(131) wild-type rat intestinal fatty acid binding protein
- DR/DR AA ([1]; arachidonic acid): 0.36
- DR/DR LNA [2]: 0.28
- DR/DR LA [3]: 0.26
- DR/DR OA [4]: 0.24
- DR/DR PA [5]: 0.14

B6: 91A, 72A (protein, listed as Rattus norvegicus)
chain: AFDGTWKVDRNENYEKFMEKMGINVVKRKLGAHDNLKLTITQEGNKFTVKESSNFRNIDVVFELGVDFAYSAADGTELTGTWTMEGNKLVAKFKRVDNGKELIAVREISGNELIQTYTYEGVEAKRIFKKE
modifications: PEPTIDE (1)...(131) wild-type rat intestinal fatty acid binding protein
- DR/DR AA ([1]; Arachidonic acid): 0.86
- DR/DR LNA [2]: 0.91
- DR/DR LA [3]: 0.83
- DR/DR OA [4]: 0.85
- DR/DR PA [5]: 0.80

B7: 106A1, 72A (protein, listed as Rattus norvegicus)
chain: AFDGTWKVDRNENYEKFMEKMGINVVKRKLGAHDNLKLTITQEGNKFTVKESSNFRNIDVVFELGVDFAYSAADGTELTGTWTMEGNKLVGKFKRVDNGKELIAVAEISGNELIQTYTYEGVEAKRIFKKE
modifications: PEPTIDE (1)...(131) wild-type rat intestinal fatty acid binding protein
- DR/DR AA ([1]; arachidonic acid): 0.39
- DR/DR LNA [2]: 0.52
- DR/DR LA [3]: 0.51
- DR/DR OA [4]: 0.60
- DR/DR PA [5]: 0.16

B8: 104S2, 72A (protein, listed as Rattus norvegicus)
chain: AFDGTWKVDRNENYEKFMEKMGINVVKRKLGAHDNLKLTITQEGNKFTVKESSNFRNIDVVFELGVDFAYSAADGTELTGTWTMEGNKLVGKFKRVDNGKELISVREISGNELIQTYTYEGVEAKRIFKKE
modifications: PEPTIDE (1)...(131) wild-type rat intestinal fatty acid binding protein
- DR/DR AA ([1]; arachidonic acid): 1.64
- DR/DR LNA [2]: 1.54
- DR/DR LA [3]: 1.71
- DR/DR OA [4]: 1.66
- DR/DR PA [5]: 1.57

B9: 93L, 72A (protein, listed as Rattus norvegicus)
chain: AFDGTWKVDRNENYEKFMEKMGINVVKRKLGAHDNLKLTITQEGNKFTVKESSNFRNIDVVFELGVDFAYSAADGTELTGTWTMEGNKLVGKLKRVDNGKELIAVREISGNELIQTYTYEGVEAKRIFKKE
modifications: PEPTIDE (1)...(131) wild-type rat intestinal fatty acid binding protein
- DR/DR AA ([1]; Arachidonic acid): 0.36
- DR/DR AA ([1]; arachidonic acid): 0.680
- DR/DR LNA [2]: 0.81 and 0.680
- DR/DR LA [3]: 1.03 and 0.670
- DR/DR OA [4]: 1.05 and 0.770
- DR/DR PA [5]: 0.62 and 0.560

B10: 82Y2, 72A (protein, listed as Rattus norvegicus)
chain: AFDGTWKVDRNENYEKFMEKMGINVVKRKLGAHDNLKLTITQEGNKFTVKESSNFRNIDVVFELGVDFAYSAADGTELTGTYTMEGNKLVGKFKRVDNGKELIAVREISGNELIQTYTYEGVEAKRIFKKE
modifications: PEPTIDE (1)...(131) wild-type rat intestinal fatty acid binding protein
- DR/DR AA ([1]; Arachidonic acid): 0.65
- DR/DR LNA [2]: 1.57
- DR/DR LA [3]: 1.53
- DR/DR OA [4]: 1.53
- DR/DR PA [5]: 0.88

B11: 93M, 72A (protein, listed as Rattus norvegicus)
chain: AFDGTWKVDRNENYEKFMEKMGINVVKRKLGAHDNLKLTITQEGNKFTVKESSNFRNIDVVFELGVDFAYSAADGTELTGTWTMEGNKLVGKMKRVDNGKELIAVREISGNELIQTYTYEGVEAKRIFKKE
modifications: PEPTIDE (1)...(131) wild-type rat intestinal fatty acid binding protein
- DR/DR AA ([1]; Arachidonic acid): 0.93
- DR/DR LNA [2]: 1.19
- DR/DR LA [3]: 1.28
- DR/DR OA [4]: 1.24
- DR/DR PA [5]: 0.75

B12: 106C2, 72A (protein, listed as Rattus norvegicus)
chain: AFDGTWKVDRNENYEKFMEKMGINVVKRKLGAHDNLKLTITQEGNKFTVKESSNFRNIDVVFELGVDFAYSAADGTELTGTWTMEGNKLVGKFKRVDNGKELIAVCEISGNELIQTYTYEGVEAKRIFKKE
modifications: PEPTIDE (1)...(131) wild-type rat intestinal fatty acid binding protein
- DR/DR AA ([1]; arachidonic acid): 0.17
- DR/DR LNA [2]: 0.22
- DR/DR LA [3]: 0.20
- DR/DR OA [4]: 0.22
- DR/DR PA [5]: 0.09

B13: 104R1, 72A (protein, listed as Rattus norvegicus)
chain: AFDGTWKVDRNENYEKFMEKMGINVVKRKLGAHDNLKLTITQEGNKFTVKESSNFRNIDVVFELGVDFAYSAADGTELTGTWTMEGNKLVGKFKRVDNGKELIRVREISGNELIQTYTYEGVEAKRIFKKE
modifications: PEPTIDE (1)...(131) wild-type rat intestinal fatty acid binding protein
- DR/DR AA ([1]; arachidonic acid): 1.14
- DR/DR LNA [2]: 1.13
- DR/DR LA [3]: 1.22
- DR/DR OA [4]: 1.20
- DR/DR PA [5]: 1.00

B14: 104T1, 72A (protein, listed as Rattus norvegicus)
chain: AFDGTWKVDRNENYEKFMEKMGINVVKRKLGAHDNLKLTITQEGNKFTVKESSNFRNIDVVFELGVDFAYSAADGTELTGTWTMEGNKLVGKFKRVDNGKELITVREISGNELIQTYTYEGVEAKRIFKKE
modifications: PEPTIDE (1)...(131) wild-type rat intestinal fatty acid binding protein
- DR/DR AA ([1]; arachidonic acid): 1.01
- DR/DR LNA [2]: 1.07
- DR/DR LA [3]: 1.16
- DR/DR OA [4]: 1.10
- DR/DR PA [5]: 0.99

B15: 104R, 72A (protein, listed as Rattus norvegicus)
chain: AFDGTWKVDRNENYEKFMEKMGINVVKRKLGAHDNLKLTITQEGNKFTVKESSNFRNIDVVFELGVDFAYSAADGTELTGTWTMEGNKLVGKFKRVDNGKELIRVREISGNELIQTYTYEGVEAKRIFKKE
modifications: PEPTIDE (1)...(131) wild-type rat intestinal fatty acid binding protein
- DR/DR AA ([1]; arachidonic acid): 1.18 and 1.075
- DR/DR LNA [2]: 0.96 and 0.904
- DR/DR LA [3]: 0.93 and 0.962
- DR/DR OA [4]: 0.88 and 0.957
- DR/DR PA [5]: 0.52 and 0.791
